# Test results as given in patent US20250059241A1 (SYNGENTA CROP PROTECTION, published 2025).
# T1: Spore-Cry1Fa (Bacillus subtilis spores displaying the Bacillus thuringiensis Cry1Fa protein as a … (Bacillus thuringiensis, UniProt Q03746 1-615))
# T1 construct: vector pSB634 or pHY300PLK
# T1 sequence: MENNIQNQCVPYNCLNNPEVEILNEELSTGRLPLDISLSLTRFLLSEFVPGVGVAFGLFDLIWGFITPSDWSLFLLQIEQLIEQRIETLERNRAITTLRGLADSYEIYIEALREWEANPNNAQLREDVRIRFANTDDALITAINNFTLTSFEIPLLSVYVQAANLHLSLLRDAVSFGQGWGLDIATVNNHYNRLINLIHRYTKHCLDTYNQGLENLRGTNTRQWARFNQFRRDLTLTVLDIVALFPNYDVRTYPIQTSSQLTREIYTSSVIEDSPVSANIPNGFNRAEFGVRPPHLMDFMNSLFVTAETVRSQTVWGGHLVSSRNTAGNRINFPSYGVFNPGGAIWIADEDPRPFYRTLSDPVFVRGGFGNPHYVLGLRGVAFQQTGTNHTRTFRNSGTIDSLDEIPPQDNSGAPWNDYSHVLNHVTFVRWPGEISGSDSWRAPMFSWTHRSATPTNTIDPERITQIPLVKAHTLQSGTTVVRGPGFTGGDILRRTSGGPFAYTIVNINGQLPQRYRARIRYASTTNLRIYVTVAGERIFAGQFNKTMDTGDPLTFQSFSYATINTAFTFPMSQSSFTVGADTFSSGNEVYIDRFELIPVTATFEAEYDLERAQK
# B1: Sf-ABCC2-Mutant (ABCC2 from a Cry1Fa-resistant Spodoptera frugiperda strain, C-terminal FLAG tag) expressed on Sf9 cells (receptor)
# chain: MDKSNKNTAANGNGGQRAGEPKERVRKKPNILSRIFVWWIFPVLITGNKRDVEEDDLIVPSKKFNSERQGEYFERYWFEEVAIAEREDRDPSLWKAMRRAYWLQYMPGAIFVLLISGLRTAQPLLFSQLLSYWSVDSEMSQQDAGLYALAMLGINFITMMCTHHNNLFVMRFSMKVKIAASSLLFRKLLRMSQVSVGDVAGGKLVNLLSNDVARFDYAFMFLHYLWVVPLQVGVVLYFVYDAAGWAPYVGLFGVIILIMPLQAGLTKLTGVVRRMTAKRTDKRIKLMSEIINGIQVIKMYAWEKPFQLVVKAARAYEMSALRKSIFIRSMFLGFMLFTERSVMFLTVLTLALTGNMISATLIYPIQQYFGIITMNVTLILPMAFASFSEMLISLERIQGFLLLDERSDIQITPKVVNGAGSKLFNNSKKEGGLETGIVLPTKYSPTEANMARPMQDEPNMADYPVQLNKVNATWADLNDNKEMTLKNISSRVRKNKLCAVIGPVGSGKTSLLQLLLRELPVTSGNLSISGTVSYASQEPWLFPATVRENILFGLEYNVAKYKEVCKVCSLLPDFKQFPYGDLSLVGERGVSLSGGQRARINLARAVYREADIYLLDDPLSAVDANVGRQLFDGCIKGYLSGKTCILVTHQIHYLKAADFIVVLNEGSVENMGSYDELMKTGTEFSMLLSDQASEGSDTDKKERPAMMRGISKMSVKSDDEEGEEKVQVLEAEERQSGSLKWDVLGRYMKSVNSWCMVVMAFLVLVITQGAATTTDYWLSFWTNQVDIQTLPEGESKNPELNTQVGLLTTGQYLIVHGSVVLAIIILTQVRILSFVVMTMRASENLHNTIYEKLIVAVMRFFDTNPSGRVLNRFSKDMGAMDELLPRSMLETVQMYLSLASVLVLNAIALPWTLIPTTVLMFIFVFLLKWYINAAQAVKRLEGTTKSPVFGMINSTISGLSTIRSSNSQDRLLNSFDDAQNLHTSAFYTFLGGSTAFGLYLDTLCLIYLGIIMSIFILGDFGELIPVGSVGLAVSQSMVLTMMLQMAAKFTADFLGQMTAVERVLEYTKLPTEENMETGPTTPPKDWPSAGEVTFSNVYLKYSPDDPPVLKDLNFAIKSGWKVGVVGRTGAGKSSLISALFRLSDITGSIKIDGLDTQGIAKKLLRSKISIIPQEPVLFSASLRYNLDPFDNYNDEDIWRALEQVELKESIPALDYKVSEGGTNFSMGQRQLVCLARAILRSNKILIMDEATANVDPQTDALIQKTIRKQFATCTVLTIAHRLNTIMDSDRVLVMDQGVAAEFDHPYILLSNPNSKFSSMVKETGDNMSRILFEVAKTKYESDSKTADYKDDDDK
# notes: Expressed in Sf9 cells by baculovirus
# Molecular target: T1, Spore-Cry1Fa (Bacillus subtilis spores …)
# Assay: bright field and fluorescence microscopy of spores mixed with Sf9 cells
binder,measurement,value
B1,binding result,no binding
